Source: the nanobody polyreactivity screen of Harvey et al. (2022)

Test: yeast display, Sf9 membrane polyspecificity reagent, FACS + sequencing; frameworks hold sequencing errors
In short: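 In a synthetic yeast display library (Saccharomyces cerevisiae BJ5465), nanobody expression was induced with galactose for 36–48 hours. FACS gates were set low and high (top ~1%) using anti-HA fluorescence for expression and streptavidin fluorescence for binding of the Sf9 membrane reagent. Each polyreactivity label is drawn from the gate of origin.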

| Sequence | polyreactivity (PSR sort gate) |
| --- | --- |
| QVQLVESGGGLVQAGGSLRLSCAASGRIFHWYVMGWYRQAPGKERELVAAISWSSGSTYADSVKGRFTISRDNAKNTVYLQMNSLKPEDTAVYYCNAKTYYPPFGYWGQGTQVTVSS | low polyreactivity |
| QVQLVESGGGLVQAGGSLRLSCAASGRIFHYYAMGWYRQAPGTERELVAAITSSGGSTYYADSVKGRFTISRDNAKNTVYLQMNSLKPEDTAVYYCAAGLIVGRFLRYDYWGQGTQVTVSS | high polyreactivity |
| QVQLVESGGGLVQAGGSLRLSCAASGRIFIANTMGCYRQAPGKERELVAAITQRGDSTYYADSVKGRFTISRDNAKNTVYLQMNSLKPEDTAVYYCAARYYLSSYVRYNYWGQGTQVTVSS | high polyreactivity |
| QVQLVESGGGLVQAGGSLRLSCAASGRIFIGNAMGWYRQAPGKERELVAAISKRGGSTYYADSVKGRFTISRDNAKNTVYLQMNSLKQEDTAVYYCNKESLYREFDYWGQGTQVTVSS | low polyreactivity |
| QVQLVESGGGLVQAGGSLRLSCAASGRIFIGNAMGWYRQAPGKERELVADISYSGGTTYYADSVKGRFTISRENAKNTVYVQMNSLKPVDTAVYYCNKYDPRPVWQGWVWIEYYYWGQGTQVTVSS | low polyreactivity |
| QVQLVESGGGLVQAGGSLRLSCAASGRIFIHYAMGWYRQAPGKERELVAAISWGGGRTYYADSVKGRFTISRDNAKNTVYLQMNSLKPEDTAVYYCAAAGRGSGYDYWGQGTQVTVSS | high polyreactivity |
| QVQLVESGGGLVQAGGSLRLSCAASGRIFIHYAMGWYRQAPGKERELVAAITFNGGSTYYADSVKGRFTISRDNAKNTVYLQMNSLKPEDTAVYYCAARLSKRSGYYYWGQGTQVTVSS | high polyreactivity |
| QVQLVESGGGLVQAGGSLRLSCAASGRIFIINALGWYRQAPGKERELVAAINTGGGTNYADSVKGRFTISRDNAKNTVYLQMNSLKPEDTAVYYCAARTYDYRARHKDGYWGQGTQVTVSS | high polyreactivity |
| QVQLVESGGGLVQAGGSLRLSCAASGRIFILYAMGWYRQAPAKERALVAAISSGGGRTYYADSVKGRFTISRDNAKNTVYLQMNSLKPEDTAVYYCATRRRRTSQRQGYDYWGQGTQVTVSS | high polyreactivity |
| QVQLVESGGGLVQAGGSLRLSCAASGRIFISNAMGWYRQAPGKERELVAAISWRGTRTYYADSVKGRFTISRENAKNTVYLEMNSLKPEVTAVYYCNADRHRSRGMDYWGQGTQVTVSS | high polyreactivity |
| QVQLVESGGGLVQAGGSLRLSCAASGRIFITNAMGWYRQAPGKERELVAVISYIGGRTYYADSVKGRFTISRDNAKNTVYLQMNSLKPEATAVYYCAARRSRPTYYSTGVNYWGQGTQVTVSS | high polyreactivity |
| QVQLVESGGGLVQAGGSLRLSCAASGRIFIVNTMGWYRQAPGKERELVATIDSDGDTNYADSVKGRFTISRDNAKNTVYLQMNSLKPEDTAVYYCAASYTHTLAALKGGRMDYWGQGTQVTVSS | low polyreactivity |
| QVQLVESGGGLVQAGGSLRLSCAASGRIFIVYPMGWYRQAPGKERELVATITRGGSTNYADSVKGRFTISRDNAKNTVYLQMNSLKPEDTAVYYCAKGWTNRYPWPGRFRTLYDYWGQGTQVTVSS | low polyreactivity |
| QVQLVESGGGLVQAGGSLRLSCAASGRIFIVYVMGWYRQAPGKERELVAGITLSGGNTYYADSVKGRFTISRDNAKNTVYLQMNSLKPEDTAVYYCAAGWYGIEMDYWGQGTQVTVSS | high polyreactivity |
| QVQLVESGGGLVQAGGSLRLSCAASGRIFIYNAMGWYRQAPGKEREFVAAISSSGGSTYYADSVKGRFTISRDNAKNTVYLQMNSLKPEDTAVYYCAAGGWPYSGGWFFQPNYDYWGQGTQVTVSS | low polyreactivity |
| QVQLVESGGGLVQAGGSLRLSCAASGRIFIYNAMGWYRQAPGKERELVAAISSGGSTYYADSVKGRFTISRDNANNTVYLQMNSLKAEDTAVYYCAAPRGHGKYYSWGQGTQVTVSS | high polyreactivity |
| QVQLVESGGGLVQAGGSLRLSCAASGRIFIYYAMGWYRQAPGKERELVAAISWSGGRTYYADSVKGRFTISRDNAKNTVYLQMNSLKPEDTAVDYCAGYSFANHGFDYWGQGTQVIVSS | high polyreactivity |
